Where a chain is given by its changes, count along the chain named.
T1: recombinant human IL-23 (hrIL-23), produced at Centocor (human, UniProt P29460 23-328)
T1 construct: p19-p40 heterodimer; also called rhIL-23; huIL-23
T1 sequence 1: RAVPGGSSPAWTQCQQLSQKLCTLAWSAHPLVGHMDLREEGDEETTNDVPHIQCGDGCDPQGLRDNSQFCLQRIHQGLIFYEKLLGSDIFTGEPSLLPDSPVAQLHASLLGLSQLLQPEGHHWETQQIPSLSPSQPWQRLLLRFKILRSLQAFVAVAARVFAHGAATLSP
T1 sequence 2: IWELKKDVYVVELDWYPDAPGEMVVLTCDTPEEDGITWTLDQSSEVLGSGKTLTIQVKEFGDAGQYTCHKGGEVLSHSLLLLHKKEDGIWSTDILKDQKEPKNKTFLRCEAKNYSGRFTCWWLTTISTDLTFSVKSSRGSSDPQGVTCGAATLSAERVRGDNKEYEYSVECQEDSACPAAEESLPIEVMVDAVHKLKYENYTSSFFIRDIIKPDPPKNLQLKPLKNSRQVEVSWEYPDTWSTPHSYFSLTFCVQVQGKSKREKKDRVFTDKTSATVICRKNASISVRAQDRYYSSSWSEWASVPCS

B1: MOR05041 Fab (Fab, V domains shown)
VH: QVQLVQSGAEVKKPGESLKISCKGSGYSFSNYWIGWVRQMPGKGLEWMGIISPTGSVTWYSPSFQGQVTISADKSISTAYLQWSSLKASDTAMYYCARWYYKPFDVWGQGTLVTVSS
VL: DIVLTQPPSVSGAPGQRVTISCTGSSSNIGSGYDVHWYQQLPGTAPKLLIYGNSKRPSGVPDRFSGSKSGTSASLAITGLQSEDEADYYCSSWTPSSVVFGGGTKLTVL
notes: Fab
B2: MOR05059 Fab (Fab, V domains shown)
VH: B1 VH with S52D, T54S, G55N, V57Y, W59N
VL: DIVLTQPPSVSGAPGQRVTISCTGSSSNIGSGYDVHWYQQLPGTAPKLLIYGNSKRPSGVPDRFSGSKSGTSASLAITGLQSEDEADYYCASWTDGLSLVVFGGGTKLTVL
notes: Fab
B3: MOR05058 Fab (Fab, V domains shown)
VH: B1 VH with S52D, T54S, G55N, V57Y, W59N
VL: B2 VL with A91S, G96T, L97P, S98N, L99M, V100I
notes: Fab
B4: MOR05046 Fab (Fab, V domains shown)
VH: B1 VH with S52D, T54V, G55S, V57W, W59K
VL: B1 VL
notes: Fab
B5: MOR05044 Fab (Fab, V domains shown)
VH: B1 VH with T54S, V57T
VL: B1 VL
notes: Fab
B6: MOR05043 Fab (Fab, V domains shown)
VH: B1 VH with I50F, T54D, V57H
VL: B1 VL
notes: Fab
B7: MOR05269 Fab (Fab, V domains shown)
VH: QVQLVQSGAEVKKPGSSVKVSCKASGGTFSNYAISWVRQAPGQGLEWMGGIIPMFGYANYAQKFQGRVTITADESTSTAYMELSSLRSEDTAVYYCARDIYAGMDVWGQGTLVTVSS
VL: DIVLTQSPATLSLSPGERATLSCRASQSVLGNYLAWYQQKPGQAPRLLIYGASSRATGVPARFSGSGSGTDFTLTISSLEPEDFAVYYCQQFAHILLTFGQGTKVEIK
notes: Fab
B8: MOR05267 Fab (Fab, V domains shown)
VH: B7 VH
VL: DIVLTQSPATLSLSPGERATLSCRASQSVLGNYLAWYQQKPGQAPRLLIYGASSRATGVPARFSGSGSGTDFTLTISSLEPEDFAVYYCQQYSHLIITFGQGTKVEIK
notes: Fab
B9: MOR05268 Fab (Fab, V domains shown)
VH: B7 VH
VL: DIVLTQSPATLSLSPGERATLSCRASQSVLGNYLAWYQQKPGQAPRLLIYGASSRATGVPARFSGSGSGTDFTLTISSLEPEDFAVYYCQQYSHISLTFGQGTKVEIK
notes: Fab
B10: MOR05034 Fab (Fab, V domains shown)
VH: QVQLVQSGAEVKKPGSSVKVSCKASGGTFSSNYISWVRQAPGQGLEWMGLIDPNFGGAYYAQKFQGRVTITADESTSTAYMELSSLRSEDTAVYYCARSKKGMYGGWTYPLMMFDLWGQGTLVTVSS
VL: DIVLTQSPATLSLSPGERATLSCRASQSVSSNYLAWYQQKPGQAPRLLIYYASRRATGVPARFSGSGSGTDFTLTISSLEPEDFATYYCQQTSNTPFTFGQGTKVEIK
notes: Fab
B11: MOR05036 Fab (Fab, V domains shown)
VH: B10 VH with N54V
VL: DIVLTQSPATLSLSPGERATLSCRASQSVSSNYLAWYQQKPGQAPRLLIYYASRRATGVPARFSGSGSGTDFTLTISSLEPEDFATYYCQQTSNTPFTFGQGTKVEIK
notes: Fab
B12: MOR05053 Fab (Fab, V domains shown)
VH: QVQLVESGGGLVQPGGSLRLSCAASGFTFSSFGMSWVRQAPGKGLEWVSNIEHKYTSYTTYYAASVKGRFTISRDNSKNTLYLQMNSLRAEDTAVYYCARYWGTPYLMQFDNWGQGTLVTVSS
VL: DIALTQPASVSGSPGQSITISCTGTSSDVGGYNSVSWYQQHPGKAPKLMIYSVSSRPSGVSNRFSGSKSGNTASLTISGLQAEDEADYYCSSYDTNKPLVVFGGGTKLTVL
notes: Fab
B13: MOR05047 Fab (Fab, V domains shown)
VH: B12 VH with T56L, S57G, T59A, Y61S
VL: B12 VL
notes: Fab
B14: MOR05050 Fab (Fab, V domains shown)
VH: B12 VH with N50S, S57G, S65P
VL: B12 VL
notes: Fab
B15: MOR05039 Fab (Fab, V domains shown)
VH: B12 VH with T56L, S57N, T59A
VL: B12 VL
notes: Fab
B16: MOR05048 Fab (Fab, V domains shown)
VH: B12 VH with Y55F, T56M, S57G, S65G
VL: B12 VL
notes: Fab
B17: MOR05056 mAb (antibody, human IgG1, V domains shown)
VH: B12 VH with Q3E, N50S, T56L, T59A, S65G
VL: B12 VL
B18: MOR05039 mAb (antibody, human IgG1, V domains shown)
VH: B12 VH with Q3E, T56L, S57N, T59A
VL: B12 VL
B19: MOR05062 mAb (antibody, human IgG1, V domains shown)
VH: QVELVESGGGLVQPGGSLRLSCAASGFTFSSFGMSWVRQAPGKGLEWVSNISSSGSSTYYADSVKGRFTISRDNSKNTLYLQMNSLRAEDTAVYYCARYWGTPYLMQFDNWGQGTLVTVSS
VL: B12 VL with S91Q, S92T, D94Y, T95F, N96S, K97Y, P98S, L99G, V100P
B20: MOR05063 mAb (antibody, human IgG1, V domains shown)
VH: B19 VH
VL: B12 VL with S91G, Y93W, T95P, N96I, K97F, P98S, L99Y, V100E
B21: MOR05061 mAb (antibody, human IgG1, V domains shown)
VH: B19 VH
VL: B12 VL with D94Y, T95F, N96Y, K97L, P98Q, L99R, V100I
B22: MOR04658 mAb (antibody, human IgG1, V domains shown)
VH: B19 VH
VL: B12 VL
B23: MOR05028 mAb (antibody, human IgG1, V domains shown)
VH: B7 VH with Q3E, M54V, Y57F, A58T, N59H
VL: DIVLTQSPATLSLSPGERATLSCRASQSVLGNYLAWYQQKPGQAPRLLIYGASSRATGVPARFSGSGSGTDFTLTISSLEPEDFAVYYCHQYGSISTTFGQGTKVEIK
B24: MOR05032 mAb (antibody, human IgG1, V domains shown)
VH: B10 VH with Q3E, L50G, D52I, N54I, G57H, Y59N
VL: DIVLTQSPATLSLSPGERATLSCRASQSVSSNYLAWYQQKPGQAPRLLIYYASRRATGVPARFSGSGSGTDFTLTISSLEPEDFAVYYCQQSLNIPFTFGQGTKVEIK
B25: MOR05037 mAb (antibody, human IgG1, V domains shown)
VH: B10 VH with Q3E, N54M
VL: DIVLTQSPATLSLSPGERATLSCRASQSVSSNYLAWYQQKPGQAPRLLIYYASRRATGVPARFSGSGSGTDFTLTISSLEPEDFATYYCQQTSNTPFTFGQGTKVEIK
B26: MOR05033 mAb (antibody, human IgG1, V domains shown)
VH: B10 VH with Q3E, L50I, D52I, N54P, F55I, G57N, Y59W
VL: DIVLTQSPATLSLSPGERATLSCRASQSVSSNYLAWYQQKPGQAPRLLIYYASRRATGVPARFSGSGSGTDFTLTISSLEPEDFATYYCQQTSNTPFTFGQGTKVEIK
B27: MOR05031 mAb (antibody, human IgG1, V domains shown)
VH: B10 VH with Q3E, L50G, D52I, N54I, G57H, Y59N
VL: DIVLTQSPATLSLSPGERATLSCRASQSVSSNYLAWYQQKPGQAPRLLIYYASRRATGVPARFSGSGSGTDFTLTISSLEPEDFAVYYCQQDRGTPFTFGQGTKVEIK
B28: MOR05034 mAb (antibody, human IgG1, V domains shown)
VH: B10 VH with Q3E
VL: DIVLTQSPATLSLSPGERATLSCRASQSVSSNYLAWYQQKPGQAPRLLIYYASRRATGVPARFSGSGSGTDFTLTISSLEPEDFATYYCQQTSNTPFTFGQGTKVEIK
B29: MOR05036 mAb (antibody, human IgG1, V domains shown)
VH: B10 VH with Q3E, N54V
VL: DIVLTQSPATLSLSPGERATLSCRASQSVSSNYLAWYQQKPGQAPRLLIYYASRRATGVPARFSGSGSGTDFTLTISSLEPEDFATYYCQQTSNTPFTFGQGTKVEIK

What follows are binders tested against T1, recombinant human IL-23 (hrIL-23), … (assay: SET).

Row | Kd [nM] | Binder
1 | 0.041 | B1
2 | 0.093 | B2
3 | 0.033 | B3
4 | 0.023 | B4
5 | 0.043 | B5
6 | 0.018 | B6
7 | 0.96 | B7
8 | 2 | B8
9 | 0.66 | B9
10 | 0.126 | B10
11 | 0.032 | B11

Target: T1, recombinant human IL-23 (hrIL-23), …
Test: SET
Remark: another data set of the same source

Row | Kd [nM] | Binder
12 | 0.027 | B12
13 | 0.036 | B13
14 | 0.023 | B14
15 | 0.027 | B15
16 | 0.02 | B16

What follows are binders tested against T1, recombinant human IL-23 (hrIL-23), … (assay: cell-based or functional assay).

Row | IC50, inhibition of IL-17 production [µg/mL] | Binder
17 | 0.092 | B17
18 | 0.161 | B18
19 | 0.199 | B19
20 | 0.198 | B20
21 | 0.309 | B21
22 | 1.96 | B22
23 | 0.104 | B23
24 | 0.172 | B24
25 | 0.336 | B25
26 | 0.283 | B26
27 | 0.215 | B27
28 | 0.185 | B28
29 | 0.17 | B29

Each binder was assayed against T1, recombinant human IL-23 (hrIL-23), … (assay: IL-23/IL-23R competition assay).

Row | IC50 [nM] | Binder
30 | 0.07 | B1
31 | 0.69 | B2
32 | 0.11 | B3
33 | 0.08 | B4
34 | 0.05 | B5
35 | 0.05 | B6
36 | 0.2 | B7
37 | 0.14 | B8
38 | 0.15 | B9
39 | 0.4 | B10
40 | 0.32 | B11

Target: T1, recombinant human IL-23 (hrIL-23), …
Test: IL-23/IL-23R competition assay
Remark: another data set of the same source

Row | IC50 [nM] | Binder
41 | 0.98 | B12
42 | 0.13 | B13
43 | 0.89 | B14
44 | 0.1 | B15
45 | 0.1 | B16
